Reference: patent US8785135B2, “Mutant G-protein coupled receptors and methods for selecting them” (Heptares Therapeutics Limited, priority 2007, dated 2014)

assay: Thermostability of A2aR and mutants (ligand binding after or during heating); type: physicochemical; details: Ligand(−) format, binding after the heating step
Source text: FIG. 12 Flow chart showing the two different assay formats of ligand (+) and ligand (−) used to determine receptor thermostability.
• 1. 315 site-directed mutants made between residues 2-316 of A2aR. • 2. All of these mutants have been assayed for thermostability using an assay measuring agonist and antagonist binding after the heating step (Ligand(−) format as described in FIG. 12). • a. […] Mutations have been combined to generate mutants in a putative antagonist conformation. Wildtype A2aR has a Tm of 31° C. with ZM241385 bound. • a. Rant17 A54L+K122A+L235A Tm 48° C. (ZM241385 bound) • b. Rant19 A54L, T88A, V239A+A204L Tm 47° C. (ZM241385 bound) • c. Rant21 A54L, T88A, V239A+K122A Tm 49° C. (ZM241385 bound) • 4. Mutations from the agonist screen have been combined, but have led to only a very low level of improvement in Tm of +2° C.

Molecule	thermostability measured with 3H-NECA (agonist)	thermostability assayed with 3H-ZM241385 (antagonist)
L267A: A2aR point mutant (protein, UniProt P29274 1-412, looked up, variant L267A) Adenosine receptor A2a: MPIMGSSVYITVELAIAVLAILGNVLVCWAVWLNSNLQNVTNYFVVSLAAADIAVGVLAIPFAITISTGFCAACHGCLFIACFVLVLTQSSIFSLLAIAIDRYIAIRIPLRYNGLVTGTRAKGIIAICWVLSFAIGLTPMLGWNNCGQPKEGKNHSQGCGEGQVACLFEDVVPMNYMVYFNFFACVLVPLLLMLGVYLRIFLAARRQLKQMESQPLPGERARSTLQKEVHAAKSLAIIVGLFALCWLPLHIINCFTFFCPDCSHAPAWLMYLAIVLSHTNSVVNPFIYAYRIREFRQTFRKIIRSHVLRQQEPFKAAGTSARVLAAHGSDGEQVSLRLNGHPPGVWANGSAPHPERRPNGYALGLVSGGSAQESQGNTGLPDVELLSHELKGVCPEPPGLDDPLAQDGAGVS	improved thermostability	–
H75A: A2aR point mutant (protein, UniProt P29274 1-412, looked up, variant H75A) Adenosine receptor A2a: MPIMGSSVYITVELAIAVLAILGNVLVCWAVWLNSNLQNVTNYFVVSLAAADIAVGVLAIPFAITISTGFCAACAGCLFIACFVLVLTQSSIFSLLAIAIDRYIAIRIPLRYNGLVTGTRAKGIIAICWVLSFAIGLTPMLGWNNCGQPKEGKNHSQGCGEGQVACLFEDVVPMNYMVYFNFFACVLVPLLLMLGVYLRIFLAARRQLKQMESQPLPGERARSTLQKEVHAAKSLAIIVGLFALCWLPLHIINCFTFFCPDCSHAPLWLMYLAIVLSHTNSVVNPFIYAYRIREFRQTFRKIIRSHVLRQQEPFKAAGTSARVLAAHGSDGEQVSLRLNGHPPGVWANGSAPHPERRPNGYALGLVSGGSAQESQGNTGLPDVELLSHELKGVCPEPPGLDDPLAQDGAGVS	–	improved thermostability
Q311A: A2aR point mutant (protein, UniProt P29274 1-412, looked up, variant Q311A) Adenosine receptor A2a: MPIMGSSVYITVELAIAVLAILGNVLVCWAVWLNSNLQNVTNYFVVSLAAADIAVGVLAIPFAITISTGFCAACHGCLFIACFVLVLTQSSIFSLLAIAIDRYIAIRIPLRYNGLVTGTRAKGIIAICWVLSFAIGLTPMLGWNNCGQPKEGKNHSQGCGEGQVACLFEDVVPMNYMVYFNFFACVLVPLLLMLGVYLRIFLAARRQLKQMESQPLPGERARSTLQKEVHAAKSLAIIVGLFALCWLPLHIINCFTFFCPDCSHAPLWLMYLAIVLSHTNSVVNPFIYAYRIREFRQTFRKIIRSHVLRQAEPFKAAGTSARVLAAHGSDGEQVSLRLNGHPPGVWANGSAPHPERRPNGYALGLVSGGSAQESQGNTGLPDVELLSHELKGVCPEPPGLDDPLAQDGAGVS	improved thermostability	–
V57A: A2aR point mutant (protein, UniProt P29274 1-412, looked up, variant V57A) Adenosine receptor A2a: MPIMGSSVYITVELAIAVLAILGNVLVCWAVWLNSNLQNVTNYFVVSLAAADIAVGALAIPFAITISTGFCAACHGCLFIACFVLVLTQSSIFSLLAIAIDRYIAIRIPLRYNGLVTGTRAKGIIAICWVLSFAIGLTPMLGWNNCGQPKEGKNHSQGCGEGQVACLFEDVVPMNYMVYFNFFACVLVPLLLMLGVYLRIFLAARRQLKQMESQPLPGERARSTLQKEVHAAKSLAIIVGLFALCWLPLHIINCFTFFCPDCSHAPLWLMYLAIVLSHTNSVVNPFIYAYRIREFRQTFRKIIRSHVLRQQEPFKAAGTSARVLAAHGSDGEQVSLRLNGHPPGVWANGSAPHPERRPNGYALGLVSGGSAQESQGNTGLPDVELLSHELKGVCPEPPGLDDPLAQDGAGVS	–	improved thermostability
N284A: A2aR point mutant (protein, UniProt P29274 1-412, looked up, variant N284A) Adenosine receptor A2a: MPIMGSSVYITVELAIAVLAILGNVLVCWAVWLNSNLQNVTNYFVVSLAAADIAVGVLAIPFAITISTGFCAACHGCLFIACFVLVLTQSSIFSLLAIAIDRYIAIRIPLRYNGLVTGTRAKGIIAICWVLSFAIGLTPMLGWNNCGQPKEGKNHSQGCGEGQVACLFEDVVPMNYMVYFNFFACVLVPLLLMLGVYLRIFLAARRQLKQMESQPLPGERARSTLQKEVHAAKSLAIIVGLFALCWLPLHIINCFTFFCPDCSHAPLWLMYLAIVLSHTNSVVAPFIYAYRIREFRQTFRKIIRSHVLRQQEPFKAAGTSARVLAAHGSDGEQVSLRLNGHPPGVWANGSAPHPERRPNGYALGLVSGGSAQESQGNTGLPDVELLSHELKGVCPEPPGLDDPLAQDGAGVS	improved thermostability	–
L272A: A2aR point mutant (protein, UniProt P29274 1-412, looked up, variant L272A) Adenosine receptor A2a: MPIMGSSVYITVELAIAVLAILGNVLVCWAVWLNSNLQNVTNYFVVSLAAADIAVGVLAIPFAITISTGFCAACHGCLFIACFVLVLTQSSIFSLLAIAIDRYIAIRIPLRYNGLVTGTRAKGIIAICWVLSFAIGLTPMLGWNNCGQPKEGKNHSQGCGEGQVACLFEDVVPMNYMVYFNFFACVLVPLLLMLGVYLRIFLAARRQLKQMESQPLPGERARSTLQKEVHAAKSLAIIVGLFALCWLPLHIINCFTFFCPDCSHAPLWLMYAAIVLSHTNSVVNPFIYAYRIREFRQTFRKIIRSHVLRQQEPFKAAGTSARVLAAHGSDGEQVSLRLNGHPPGVWANGSAPHPERRPNGYALGLVSGGSAQESQGNTGLPDVELLSHELKGVCPEPPGLDDPLAQDGAGVS	improved thermostability	–
P313A: A2aR point mutant (protein, UniProt P29274 1-412, looked up, variant P313A) Adenosine receptor A2a: MPIMGSSVYITVELAIAVLAILGNVLVCWAVWLNSNLQNVTNYFVVSLAAADIAVGVLAIPFAITISTGFCAACHGCLFIACFVLVLTQSSIFSLLAIAIDRYIAIRIPLRYNGLVTGTRAKGIIAICWVLSFAIGLTPMLGWNNCGQPKEGKNHSQGCGEGQVACLFEDVVPMNYMVYFNFFACVLVPLLLMLGVYLRIFLAARRQLKQMESQPLPGERARSTLQKEVHAAKSLAIIVGLFALCWLPLHIINCFTFFCPDCSHAPLWLMYLAIVLSHTNSVVNPFIYAYRIREFRQTFRKIIRSHVLRQQEAFKAAGTSARVLAAHGSDGEQVSLRLNGHPPGVWANGSAPHPERRPNGYALGLVSGGSAQESQGNTGLPDVELLSHELKGVCPEPPGLDDPLAQDGAGVS	improved thermostability	–
T88A: A2aR point mutant (protein, UniProt P29274 1-412, looked up, variant T88A) Adenosine receptor A2a: MPIMGSSVYITVELAIAVLAILGNVLVCWAVWLNSNLQNVTNYFVVSLAAADIAVGVLAIPFAITISTGFCAACHGCLFIACFVLVLAQSSIFSLLAIAIDRYIAIRIPLRYNGLVTGTRAKGIIAICWVLSFAIGLTPMLGWNNCGQPKEGKNHSQGCGEGQVACLFEDVVPMNYMVYFNFFACVLVPLLLMLGVYLRIFLAARRQLKQMESQPLPGERARSTLQKEVHAAKSLAIIVGLFALCWLPLHIINCFTFFCPDCSHAPLWLMYLAIVLSHTNSVVNPFIYAYRIREFRQTFRKIIRSHVLRQQEPFKAAGTSARVLAAHGSDGEQVSLRLNGHPPGVWANGSAPHPERRPNGYALGLVSGGSAQESQGNTGLPDVELLSHELKGVCPEPPGLDDPLAQDGAGVS	–	improved thermostability
A54L: A2aR point mutant (protein, UniProt P29274 1-412, looked up, variant A54L) Adenosine receptor A2a: MPIMGSSVYITVELAIAVLAILGNVLVCWAVWLNSNLQNVTNYFVVSLAAADILVGVLAIPFAITISTGFCAACHGCLFIACFVLVLTQSSIFSLLAIAIDRYIAIRIPLRYNGLVTGTRAKGIIAICWVLSFAIGLTPMLGWNNCGQPKEGKNHSQGCGEGQVACLFEDVVPMNYMVYFNFFACVLVPLLLMLGVYLRIFLAARRQLKQMESQPLPGERARSTLQKEVHAAKSLAIIVGLFALCWLPLHIINCFTFFCPDCSHAPLWLMYLAIVLSHTNSVVNPFIYAYRIREFRQTFRKIIRSHVLRQQEPFKAAGTSARVLAAHGSDGEQVSLRLNGHPPGVWANGSAPHPERRPNGYALGLVSGGSAQESQGNTGLPDVELLSHELKGVCPEPPGLDDPLAQDGAGVS	–	improved thermostability
K315A: A2aR point mutant (protein, UniProt P29274 1-412, looked up, variant K315A) Adenosine receptor A2a: MPIMGSSVYITVELAIAVLAILGNVLVCWAVWLNSNLQNVTNYFVVSLAAADIAVGVLAIPFAITISTGFCAACHGCLFIACFVLVLTQSSIFSLLAIAIDRYIAIRIPLRYNGLVTGTRAKGIIAICWVLSFAIGLTPMLGWNNCGQPKEGKNHSQGCGEGQVACLFEDVVPMNYMVYFNFFACVLVPLLLMLGVYLRIFLAARRQLKQMESQPLPGERARSTLQKEVHAAKSLAIIVGLFALCWLPLHIINCFTFFCPDCSHAPLWLMYLAIVLSHTNSVVNPFIYAYRIREFRQTFRKIIRSHVLRQQEPFAAAGTSARVLAAHGSDGEQVSLRLNGHPPGVWANGSAPHPERRPNGYALGLVSGGSAQESQGNTGLPDVELLSHELKGVCPEPPGLDDPLAQDGAGVS	improved thermostability	–

same assay, conditions: ZM241385 bound

Molecule	Tm
Rant17: A2aR mutant A54L+K122A+L235A (protein, UniProt P29274 1-412, looked up, variant A54L K122A L235A) Adenosine receptor A2a: MPIMGSSVYITVELAIAVLAILGNVLVCWAVWLNSNLQNVTNYFVVSLAAADILVGVLAIPFAITISTGFCAACHGCLFIACFVLVLTQSSIFSLLAIAIDRYIAIRIPLRYNGLVTGTRAAGIIAICWVLSFAIGLTPMLGWNNCGQPKEGKNHSQGCGEGQVACLFEDVVPMNYMVYFNFFACVLVPLLLMLGVYLRIFLAARRQLKQMESQPLPGERARSTLQKEVHAAKSAAIIVGLFALCWLPLHIINCFTFFCPDCSHAPLWLMYLAIVLSHTNSVVNPFIYAYRIREFRQTFRKIIRSHVLRQQEPFKAAGTSARVLAAHGSDGEQVSLRLNGHPPGVWANGSAPHPERRPNGYALGLVSGGSAQESQGNTGLPDVELLSHELKGVCPEPPGLDDPLAQDGAGVS	48 °C
